Assay results: patent US11666658B2, “Rifamycin analogs and antibody-drug conjugates thereof” (Regeneron Pharmaceuticals, Inc., priority 2018, dated 2023)

Tests used:
[1] = molecular target: T1, endogenously expressed human MSR1 on PMA-treated THP-1 cells (Homo sapiens, UniProt P21757); test: Electrochemiluminescence (ECL) antibody binding assay on cells
T1 construct: endogenously expressed human MSR1; endogenous in cells; host or cells: THP-1 cells treated with 200 nM PMA
T1 sequence (P21757 1-451): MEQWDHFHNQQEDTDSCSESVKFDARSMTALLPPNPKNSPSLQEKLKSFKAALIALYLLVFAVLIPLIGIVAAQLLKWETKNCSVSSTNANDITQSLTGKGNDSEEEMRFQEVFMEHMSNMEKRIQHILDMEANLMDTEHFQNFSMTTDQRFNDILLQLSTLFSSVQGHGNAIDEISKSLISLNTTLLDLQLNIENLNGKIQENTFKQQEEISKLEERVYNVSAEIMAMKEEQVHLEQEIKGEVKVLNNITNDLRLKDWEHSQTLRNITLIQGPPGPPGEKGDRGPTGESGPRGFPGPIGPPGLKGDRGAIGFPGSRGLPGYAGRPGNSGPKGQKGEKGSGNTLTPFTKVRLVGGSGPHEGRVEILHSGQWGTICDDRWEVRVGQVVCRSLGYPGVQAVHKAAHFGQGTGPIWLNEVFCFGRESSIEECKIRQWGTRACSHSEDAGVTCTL
Description: (§1) The ability of anti-MSR1 monoclonal antibodies to bind to human or monkey MSR1 expressing cells was determined using electrochemiluminescence (ECL) based detection.
(§2) Two cell lines overexpressing either human or monkey MSR1 were generated. To generate the human MSR1 overexpressing cell line, human embryonic kidney (HEK) 293 cells were engineered by transduction with hygromycin resistant lentiviral vector encoding full length human MSR1 (hMSR1, amino acids M1-L451 of accession number NP_619729.1) with a C-terminal Myc tag. The resulting cell line is referred to as HEK293.Myc.hMSR1. Similarly, to generate the monkey MSR1 overexpressing cell line, HEK293 cells were engineered by transfection with the geneticin resistant expression plasmid encoding full length monkey MSR1 (Macaca fascicularis, mfMSR1, amino acids M1-L451 of accession number XP_005562705.1). The resulting cell line is referred to as HEK293.mfMSR1 cells. To measure the ability of antibodies to bind to endogenously expressed human MSR1, THP-1 human monocytic cells were treated with 200 nM of phorbol 12-myristate 13-acetate (PMA; Sigma, Cat #P8139) for 72 hours to induce high MSR1 expression prior to antibody binding.
(§3) Luminescence intensity, measured in relative light units (RLU), was recorded to indicate the binding intensity of each antibody at the range of concentrations.

parental HEK293 cells = test: Electrochemiluminescence (ECL) antibody binding assay on cells, non-specific binding control; parameters: species or system human
Description: as §1, §2, §3

[2] = test system: MSR1 negative B16F10.9 cells; test: Flow cytometry cell surface binding, MSR1 negative cells; parameters: species or system mouse
Description: Relative cell surface binding of the anti-MSR1 antibodies to mouse MSR1 expressing cells was determined by flow cytometry using MSR1 positive RAW264.7 cells (ATCC, Catalog #TIB-71) and MSR1 negative B16F10.9 cells (Lin et al. 1998. PNAS 95:8829-8834). For the assay, cells were plated in PBS without calcium and magnesium (VWR Cat #45000-446) and 2% FBS (Saradigm Cat #1500-500) (Staining Buffer) in 96 well V-bottom plates (Axygen Scientific, Cat #P-96-450-V-C-S). To block binding to Fc receptors, RAW264.7 cells were incubated for 30 minutes at 4° C. with 500 μg/mL mouse IgG (Jackson ImmunoResearch, Cat #015-000-003) diluted in staining buffer, while B16F10.9 cells remained in staining buffer. Following Fc receptor blocking, 10 μg/mL of anti-MSR1 antibodies or an isotype control antibody were added to the cells and were subsequently incubated for 30 minutes on ice. For a positive control, a commercial anti-mouse MSR1 (Sino Biological, Cat #50129-R004) antibody was used, while a rabbit IgG antibody (Thermo Scientific, Cat #26102) was used as a negative control. […] Cells were subsequently washed and fixed using a 50% solution of Cytofix (BD Biosciences, Cat #554655) diluted in PBS. […] The signal to noise (S/N) was determined by calculating the ratio of the anti-MSR1 antibodies or the control antibodies MFI to the unstained sample MFI (Table 16).

[3] = molecular target: T2, MSR1 on differentiated THP-1 cells (Homo sapiens, UniProt P21757); test: Binding and internalization of cell-surface expressed MSR1 (confocal imaging); type: cell-based; conditions: 10 μg/mL antibody
T2 construct: endogenously expressed human MSR1; endogenous in cells; host or cells: THP-1 cells treated with 200 nM PMA
T2 sequence (P21757 1-451): T1 sequence (P21757 1-451)
Description: The THP-1 cells were allowed to differentiate for 4 days at 37° C. in 5% CO2. […] The remaining two plates were incubated at 37° C. for 1 hour followed by fixation and staining for 20 minutes using a solution of 4% PFA+5 μM DRAQ5 diluted in PBS (internalization plates). After fixation, all plates were washed once with PBS. […] The remaining plates were incubated with PBS only. Confocal images were acquired on the Opera Phenix (Perkin Elmer) at 40× magnification. […] The total binding at 4° C. (RFU values of 4° C. unquenched wells), total binding at 37° C.
For all calculations, background fluorescence from unstained wells was subtracted from every well. Total internalized RFU was calculated as follows: Total RFU of 37° C. unquenched samples—Surface RFU at 37° C. Surface RFU is defined as unquenched RFU at 37° C.-quenched RFU at 37° C.)/QE. QE (quenching efficiency) is defined as: 1-(Total RFU of 4° C. quenched sample/Total RFU of 4° C. unquenched sample). The % Internalization was determined from the following formula: (Total internalized RFU at 37° C./Total RFU at 37° C.)*100.

[4] = test system: S. aureus MRSA strain NRS384; test: S. aureus IV disseminated infection mouse model (humanized MSR1 mice), kidney burden; type: in vivo, Staphylococcus aureus; conditions: with vancomycin; for # of mice with S. aureus below the limit of detection: limit of detection = 250 cfu
Description: To test the efficacy of an anti-MSR1 Ab-antibiotic ncADC according to the disclosure in vivo, an intravenous disseminated infection model was utilized. S. aureus MRSA strain NRS384 was grown overnight in trypic soy broth (TSB) and sub-cultured to mid-logarithmic phase. Bacteria were then washed twice with PBS and resuspended in PBS at a concentration of 1.2×10^8 cfu/mL. […] From one to three days post infection, mice were treated with 110 mg/kg vancomycin subcutaneously twice daily wherein indicated. […] Mice were monitored for weight loss and body conditioning score throughout the infection. At four days post infection, mice were euthanized and the S. aureus kidney burden was quantified by tissue homogenization followed by enumeration of colony forming units through serial dilution in PBS and plating onto trypicase soy agar plates.

[5] = mAb or conjugate dose 0.1 mg/kg

B1: H1H21234N-N297Q: "An anti-MSR1 antibody H1H21234N containing a N297Q mutation, which eliminates N-linked glycosylation of the Fc at this site" (antibody, V domains shown)
VH: QVQLQESGPGLVKPSETLSLTCTVTGGSISRNYWSWIRQPPGKGLEWIGYIYYSGSIDYNPSLKSRVTISVDTSKNQFSLKLSSMTAADTAVYYCARDRWNWKYGMDVWGQGTTVIVSS
VL: EIVLTQSPGTLSLSPGERATLSCRASQTVRNNYLAWYHQKPGQAPRLLIYGASSRATGIPDRFSGSGSGTDFTLTISRLEPEDFTVYYCHQYGNSPWTFGQGTKMEIKR
- Ratio of 11 nM Antibody Binding Signal (RLU) to isotype control, PMA-treated THP-1 [1]: 25
- Ratio of 11 nM Antibody Binding Signal (RLU) to isotype control, HEK293 (parental HEK293 cells): 9
- B16F10.9 MFI ([2]; 10 μg/mL antibody, flow cytometry): 3499
- B16F10.9 S/N ([2]; ratio of antibody MFI to unstained sample MFI): 1
- Total Binding at 4° C. ([3]; 4° C.): 1953248
- % Internalization ([3]; 37° C.): 13.3%
- Total Binding at 37° C. ([3]; 37° C.): 5451125
- Total Internalized RFU ([3]; 37° C.): 722651 RFU
- Average cfu/kidney pair [4, 5]: 2.43E+05 cfu/kidney pair
- # of mice with S. aureus below the limit of detection [4, 5]: 0/6
- Average cfu/kidney pair ([4]; mAb or conjugate dose 1 mg/kg): 1.55E+05 cfu/kidney pair
- # of mice with S. aureus below the limit of detection ([4]; mAb or conjugate dose 1 mg/kg): 4/8
